In the nanobody polyreactivity screen of Harvey et al. (2022):

Test: yeast display, Sf9 membrane polyspecificity reagent, FACS + sequencing; frameworks hold sequencing errors
Summary of the method: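 In a synthetic yeast display library (Saccharomyces cerevisiae BJ5465), nanobody expression was induced with galactose for 36–48 hours. FACS gates were set low and high (top ~1%) using anti-HA fluorescence for expression and streptavidin fluorescence for binding of the Sf9 membrane reagent. Each polyreactivity label is drawn from the gate of origin.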

Sequence	polyreactivity (PSR sort gate)
QVQLVDSGGGLVQAGGSLRLSCAASGSTFKIYAMGWYRQAPGKERELVARITGRGGSTYYADSVKGRFTISRDNAKNTVYLQMNSLKPEDTAVYYCAAAKRYYSEMYWGQGTQVTVSS	high polyreactivity
QVQLVDSGGGLVQAGGSLRLSCAASGSTFLAYAMGSSRQAPGKQTELVAAITWNSCSSTFYADSVKGRFTISRDNAKNSVYLQMNSLKPEDTAVYYCNADVPSPAYYGDGTPYREDNYWGQGTQVTVSS	low polyreactivity
QVQLVDSGGGLVQAGGSLRLSCAASGSTFSRYAMGWYRQARGKERELVAAITDGGDSTYYADSVKGRFTISRDNAKNTVYLQMNSLKPEDTAGYYCNADRLQYGRTPHYDYWGQGTQVTVSS	low polyreactivity
QVQLVDSGGGLVQAGGSLRLSCAASGSTFSSYAMGWYRQAPGKERELVDVITRGTSTNYADSVKGRFTISRDNAKNTVYLQMNSLKPEDTAVYYCNSRRGSRRFGYCGQGTQVTVSS	high polyreactivity
QVQLVDSGGGLVQAGGSLRLSCAASGSTFSVYAMVWYRQAPGKERELVAAISKRGTSTYYADSLKGRFTISRDYAKNTLYLQKNSLKPEDTAVYYCAAEAYRPSPFYYWGQGTQVTFSS	high polyreactivity
QVQLVDSGGGLVQAGGSLRLSCAASGSTFVYYAMGWYRQAPGKERELVAAISSGGRTYYADSVKGRFTISRDNAKNTVYFQMNSLKPEDTAVYYCATYPRYSKSPGYDSWGQGTQVTVSS	high polyreactivity
QVQLVDSGGGLVQAGGSLRLSCAASGYIFHLYGMGWYRQAPGKERELVARISYRGGSTYYADSVKGRFTISRDNAKNTVYLQMHSLKPEDTAVYYCAKDYYKHYYWGQGTQVTVSS	high polyreactivity
QVQLVDSGGGLVQAGGSLRLSCAASGYIFYFNAMGWYRQAPGKEREMVAAISDRDDSTYYADSVKGRFTISRDNAKNTVYLQMNSLKPEDTAVYYCAADGYTYVDDPYDYWGQGTQVTVSS	low polyreactivity
QVQLVDSGGGLVQAGGSLRLSCAASVQTIYQKAMGWYRPAPGKERELVAAITRSGGSTRYADSVKGRFTISRDNAKNTVYLEMSSLKPEDTSVFYCNARYRIGSWYEFGSWGQGTQVTVSS	high polyreactivity
QVQLVDSGGGLVQAGGSLRLSCAAYGRIFGIYTMGWYRQAPGKERELVAAIRFSGSRTYYADSVKGRFTISRDNAKNTVYLQMNSLKPEDTAVYYCNADWWFYRLRNEYWGQGTQVTVSS	high polyreactivity
QVQLVDSGGGLVQAGGSLRLSCADSGSIFPANVMGWYRQAPGKERELVAAISRGGSTYYADSVKGRFTISRDNAKNTVYLQMNSLKPEDTAVYYCAVAFRGSYRPAYYYWGQGTQVTVSS	high polyreactivity
QVQLVDSGGGLVQAGGSLRLSCASSGIIFGYYAMGWYRPAPGKERELVAGITYRTGSTDYADSVKGRFTISRDNAKNTVYFQMNSLKPEDTAVYFCAATQDKRKYSSCYYYWGQGTQVTVSS	high polyreactivity
QVQLVDSGGGLVQAGGSLRLSCDASGSTFRGTVMGWYRQAPGKERELVAGIYSGGSTYYADSVKGRFTISRDNAKNTVYLQMNSLKPEDTAVYYCAAYRRQHIIYNDWGQGTQVTVSS	high polyreactivity
QVQLVDSGGGLVQAGGSLRLSCPASGFIFAKYAKGWSRQAPGKERELGAAITSGGSTNYADSVTGRFTISRDNAKNTVYLQMHSLKPEDTAVYYCNRGFDWWYRYRHYDYWGQGTQVTVSS	low polyreactivity
QVQLVDSGGGLVQAGGSLRLSCPASGFNFYRNAMGSYRQAPGKERELVAAISGSGGRTYYADSVKGRFTISRDNAKNTVYLQMNSLKPEDTAVYYCATDYAYSPYRYWTRYDYWGQGTQVTVSS	high polyreactivity
QVQLVDSGGGLVQAGGSLRLSCPASGRTFYVYDMGWYRQSPGKERELVAVISSSGSTNYADSVKGRFTISRDNAKNTVYLQMNSLKPEDTAVYYCNRRRWYFFSLDFWGEGTQVTVSS	high polyreactivity
QVQLVDSGGGLVQAGGSLRLSCPASGSTFSRYAMGWYRQAPGKERELVAAISRSGGTTYYADSVKGRFTISRDNAKNTVYLQMNSLKPEDTAVYYCNDRGRYEYGYWGQGTQVTVSS	high polyreactivity
QVQLVDSGGGLVQAGGSLRLSSAASGRTLVNYAMGCYRQAPGKERELVAAISYSGGSTYYADSVKGRFTISRDNAKNTVYLQMNSLKPEDTAVYYCAAYYYQRYDYWGQGTQVTVSS	high polyreactivity
QVQLVDSGGGLVQAGGSLRLTCAASGIIFRLYGMGWYRQAPGKEREFVATITWRGGRTNYADSVKGRFTISRDNAKNTVYLQMNSLKPEDTAVYYCAKVVRYARSNEYDSWGQGTQVTVSS	low polyreactivity
QVQLVDSGGGLVQAGGSLRLTFAASGSIFAWYAMGLYRQEPGKERELVAVITRGGSTNYADSVKGRFTISRDNAKNTVYLPMISQKPEDTAVYYCAAGSYYSWYPFDYWGQGTQLTVSS	low polyreactivity
QVQLVDSGGGLVQAGGTLRLSCASSGSTFYYYAMGWYRQAPGKERELVAGITSGGSTNYADSVKGRFTISRDNAKNTVKLLMNSLKPEDTADYYCNARYRKYRYRYDYWGQGTQVSVSS	low polyreactivity
QVQLVDSGGGLVQAGGTLRLSCSASGRTFPTYAMGWYRQAPGKEREVVAAISSSGCSTYYADSVKGRFTISRDNAKNSVYLQMHSLKPEDTAVYYCAALRDRNLNPGYDYWGQGTQLTVSS	low polyreactivity

Sequence	polyreactivity (PSR sort gate)
QVQLVDSGGGLVQARGTLRLSCAASGSTFRVYAMGWYRQAPGKEMELVAAISSSGGITYYADSVKGRFPISRDNAKNSVYLQMNSLKPEDTEVYYCAKGTVIHVLYDYWGQGTQVTVSS	low polyreactivity
QVQLVDSGGGLYQAGGSLSLTCAASGSIFDFNAMGWYRQAPGKERELVAAISGSGARTYYADSVKGRFTIARDNAKHTVYLQLNSLKPEDTAVYLCARPYVYGYDSWGQGTQVTFSS	high polyreactivity
QVQLVDSGGRLFQAGGSLRLSCAAYGFSFSYYDMGSYRQAPGKERELVAAIFSNGRTYYADSVKGRFTISRDNAKNTVYLQMNSLKPVDTAVYYCAAAYVGYYYSRGFDYWGQGTQVTVSS	high polyreactivity
QVQLVDSGRGFVQAGGSLRLSCAASGSTYPGNEMGRSRQAPGKESELVAAIRWSGGSTYYADSVKGRFTISRDNAKNNVYLQMNSLKPEDTAVYYCAADYLIPDTYLFQAYVGFEYWGQGTLVTVSS	low polyreactivity
QVQLVDSGVGLVQAGGSLRLSCAASGNTFSSYTMGWYIQAPGKERELVAGISRTGTSTYYADSVKGRFTISRDNAKNSVYLQMNSLKPEDTAVYYCAARTGWWYYWGQGTQVSVSS	high polyreactivity
QVQLVDSGVGLVQAGGSLRLSCAASGSIFYQNAMGWYRQAHGSERELVAAITSDGSTYYADSVKGRFTISRDNAKNTVYLQMNSLKPEDTAVYYCPAEYYGHRYDYCGQGTQVTVSS	low polyreactivity
QVQLVDSRGGLVQAGGSLRLSCAASGIIFFDYTMGWYSQAPGKERELVASITRGGSTYADSVKGRFTISRDNAMNSVYLQMNSLKPEDTAVYYCAATIVDYDAYGYWGQGTQVTVSS	low polyreactivity
QVQLVDSRGGLVQAGGSLRLSCAASGLTFGPYAMGRYRQAPGKEREFVAAITWRGGRTNYADSVKGRFTMSRDNAKNTVYLQMNSLKPEDTAVYYCNAVISPHQWIRGGDSWGQGTQVTVSS	low polyreactivity
QVQLVDSRGGLVQAGGSLRLSCSASGSIFPANVMGWYRQAPGKERELVASINSGDDTNYADSVKGRFTISRDNAKNTVYLQMNSLKPEDTAVYYCATGDWYPYGDYIYDYWGQGTQVTVSS	low polyreactivity
QVQLVDSVGGLVQAGGSLRISCAASGSIFGFYAMGWYRQSPGKERELVAAISQRGGNTYYADSVKRRFTISRDNAKNTVYLQMNSLKPEDTAFYFCASDKHPYKRHWYYTYDYWGLGTQVTVSS	high polyreactivity
QVQLVDSWGGLVQAGGSLRLSCAASGSIFTLYDMGWYRQAPGKERELVAAIDWSGGSTRYADSVKGRFTISRDNAKNTVYLQMNSLKPEDTAVYYCAKDLGGRYGRYRYDYWGQGTQVTVSS	high polyreactivity
QVQLVDTGGGLVQAGGILRIRCAASGRIFHGNSMVCYRQAPGKERELVAAITWGGTRTYYSDSVKGRFTISRDNAKNTVYLQMNSLKPEDTAVYYCATDYGYTDRVTSGFDYWGQGNQVTVSS	low polyreactivity
QVQLVDTGGGLVQAGGSLRLSCAASGLTIYGNAMGWSRQAPGKERELVAAISSSGGTTYYADSVKGRFTISRDNSKNTVYLQMNSLKPEDTAVYYCAARPSGGYESTRTRDYWGQGTQVTLSS	low polyreactivity
QVQLVEAGGGLVQAGGILRLSSAASGSIFPLNAMGWYRQAPGKERELVAAISESGGRTYYADSVNGRFTISRDNAKNTVYLQMNSLNPEDTAVYYCATVRLARKSAPYDYWGQGTQVTVSS	high polyreactivity
QVQLVEAGGGLVQAGGSLRLSCAASGRTFLRYTMGWYRQAPGKEREWVASITRGGSTYYADSVKGRFTISRDNAKNTVYLQMNSLKPEDTAVYYCAAGKALLSRYYYWGQGTQVTVSS	high polyreactivity
QVQLVEAGGGLVQAGGSLRLSCAASGRTFPVNPMGGYRQAPGKERELVAAISKRAGSTYYADSVKGRFTISRDNAKNTVYLQMNSLKPEDTAVYYCAARWRVIYAEFDYWGQGTQVTVSS	high polyreactivity
QVQLVEAGGGLVQAGGSLRLSCAASGRTFTYYTMGWYRQAPGKERELVATITSGGITNYADSVKGRFTISRDNAKNTVYLQMNSLKTEDTAVYYCDKRWVNKYYYWGQGTQVTVSS	high polyreactivity
QVQLVEAGGGLVQAGGSLRLSCAASGRTLYPYAMGWYRQAPGKERELVAAISSRGGSTYYADSVKGRFTISRDNAKNTVYLQMNSLKPEDTAVYYCAKSYRKILSITGLVPWTDYFWGQGTQVTVSS	low polyreactivity
QVQLVEAGGGLVQAGGSLRLSCAASGYIFFFYAMGWYRQAPGKERELVASITYRGGSTYYADSVKGRFTISRDNAKNTVYLQMNSLIPEDTAVYYCNVDGGGPLGPQGFPFDYWGQGTQVTVSS	low polyreactivity
QVQLVEAGGGLVQAGGSLRLSCGASGLTLTYYAMGGYRQAPGKERELVASISRSGGRTYYADSVKGRFTISRDNAKNPVYLQMNSLKPEDTAVYYCNAAWYRGRYDYWGQGTQVTVSS	high polyreactivity
QVQLVEAGGGLVQAGGSLRLSGAASGFTLYANAMGWYRQAPGKERELVADISVSGSSTAYADSVKGRFTISRDNAKNTVYLQMNSLKPEDTAVYYCNADQGTRDSDYWGQGTQVTVSS	low polyreactivity
